# Data as given in PMC2749708.
# Tests used:
# [1] = target: EspFU three-repeat fragment; assay: AUC + other: binding assays
# [2] = target: N-WASP GBD (amino acids 214-274) (UniProt O08816)
# Chain of UniProt O08816 (O08816 214-274): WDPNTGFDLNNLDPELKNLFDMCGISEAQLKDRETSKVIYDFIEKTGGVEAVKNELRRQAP
# Chain of EspFU three-repeat fragment (C6UYI3 whole entry, the tested form may be a part): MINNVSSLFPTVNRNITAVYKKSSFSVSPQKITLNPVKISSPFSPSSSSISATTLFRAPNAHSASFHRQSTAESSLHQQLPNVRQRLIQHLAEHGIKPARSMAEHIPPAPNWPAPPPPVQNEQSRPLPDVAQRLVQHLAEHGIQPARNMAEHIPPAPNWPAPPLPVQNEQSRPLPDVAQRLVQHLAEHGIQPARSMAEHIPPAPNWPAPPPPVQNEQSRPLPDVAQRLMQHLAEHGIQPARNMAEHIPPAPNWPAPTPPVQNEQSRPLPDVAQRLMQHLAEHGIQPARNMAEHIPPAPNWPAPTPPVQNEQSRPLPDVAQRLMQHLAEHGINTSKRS
Substance,stoichiometry N [1],Kd [2]
N-WASP GBD (domain or fragment),3,–
one EspFU repeat (domain or fragment),–,18 nM
